These results are taken from US20260132207A1 (ACCELERON PHARMA, published 2026).

For assay [1], the target named is T1, dimeric hActRIIA (human, UniProt P27037 20-135).
T1 construct: also called ActRIIA DIMER; ActRIIA dimer
Kind of assay: SPR (Biacore), 37 C, antibody captured on anti-hFc IgG chip, dimeric ActRIIA injected. How it is done:
(§1) Kinetic characterization of J01, K01, L01, M01, N01, and P01 antibodies binding to monomeric and dimeric hActRIIB and hActRIIA was performed using standard BIACORE®-based analysis at 37° C. In brief, antibodies were captured on anti-hFclgG Biacore chips and different concentrations of dimeric and monomeric ActRIIB or ActRIIA were injected in duplicates over the captured antibody and control surface. To obtain kinetic rate constants the data were double referenced and fit to a 1:1 interaction model using BiaEvaluation software (GE Healthcare). The equilibrium binding constant KD was determined by the ratio of binding rate constants kd/kₐ
For orientation: In SPR one partner is held on a chip, and binding of the other changes the refractive index at the surface.

The target of assay [2] is T2, dimeric hActRIIB (human, UniProt Q13705 19-134).
T2 construct: also called ActRIIB DIMER; ActRIIB dimer
Kind of assay: SPR (Biacore), 37 C, antibody captured on anti-hFc IgG chip, dimeric ActRIIB injected, 1:1 model. The procedure:
as §1

Assay [3] concerns the target T2, dimeric hActRIIB. Kind of assay: SPR (Biacore), 37 C, antibody captured on anti-hFc IgG chip, dimeric ActRIIB injected, KD = kd/ka. How it is done: as §1
The target in assay [4] is T3, monomeric hActRIIB (human, UniProt Q13705 19-134, limits assumed).
T3 construct: also called ActRIIB MONOMER; ActRIIB monomer
Kind of assay: SPR (Biacore), 37 C, antibody captured on anti-hFc IgG chip, monomeric ActRIIB injected, 1:1 model. How it is done: as §1

The target of assay [5] is T3, monomeric hActRIIB. The assay is described as follows: SPR (Biacore), 37 C, antibody captured on anti-hFc IgG chip, monomeric ActRIIB injected, KD = kd/ka. How it is done:
as §1

The target of assay [6] is T1, dimeric hActRIIA. Kind of assay: SPR (Biacore), 37 C, antibody captured on anti-hFc IgG chip, dimeric ActRIIA injected, 1:1 model. How it is done: as §1
The target in assay [7] is T1, dimeric hActRIIA. Kind of assay: SPR (Biacore), 37 C, antibody captured on anti-hFc IgG chip, dimeric ActRIIA injected, KD = kd/ka. The procedure: as §1
Assay [8] concerns the target T4, monomeric hActRIIA (human, UniProt P27037 20-135, limits assumed).
T4 construct: also called ActRIIA MONOMER; ActRIIA monomer
The assay is described as follows: SPR (Biacore), 37 C, antibody captured on anti-hFc IgG chip, monomeric ActRIIA injected, 1:1 model. How it is done: as §1

Assay [9] addresses T4, monomeric hActRIIA. Kind of assay: SPR (Biacore), 37 C, antibody captured on anti-hFc IgG chip, monomeric ActRIIA injected, KD = kd/ka. How it is done:
as §1

T3 sequence (Q13705 19-134 limits assumed): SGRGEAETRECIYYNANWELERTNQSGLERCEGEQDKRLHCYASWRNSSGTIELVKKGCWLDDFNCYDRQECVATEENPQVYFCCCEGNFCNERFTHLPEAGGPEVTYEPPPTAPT
T2 sequence (Q13705 19-134): as the sequence (Q13705 19-134 limits assumed) above
T1 sequence (P27037 20-135): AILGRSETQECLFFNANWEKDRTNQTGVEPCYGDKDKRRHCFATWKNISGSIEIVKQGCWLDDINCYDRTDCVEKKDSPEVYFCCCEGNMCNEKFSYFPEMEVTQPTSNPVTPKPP
T4 sequence (P27037 20-135 limits assumed): as the sequence (P27037 20-135) above

B1: K01 (antibody, human IgG1, kappa, V domains shown)
VH: QLQLQESGPGLVKPSETLSLTCTVSGGSISSSSYYWGWIRQPPGKGLEWIGSISYSGSTYYNPSLKSRVTISVDTSKNQFSLKLSSVTAADTAVYYCARDSLRYGMDVWGQGTTVTVSS
VL: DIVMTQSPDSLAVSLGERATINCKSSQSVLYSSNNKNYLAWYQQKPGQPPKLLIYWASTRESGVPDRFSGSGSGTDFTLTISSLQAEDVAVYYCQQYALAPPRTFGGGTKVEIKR
notes: Naive human IgG from a yeast library; It was captured on an anti-hFc IgG chip in the SPR assay; also called K01 antibody; mAB K01
As a reminder, the koff is the first-order rate constant of dissociation. A word on the kon: it is a measure of how fast the partners come together. Read a high kon as faster complex formation. As usually defined, the Kd is the equilibrium constant for the complex coming apart. Low values mean tighter binding, high ones weaker binding. As for B1, in the assay with dimeric hActRIIA [1], the binding result is “no binding”. Besides, the koff in the assay with dimeric hActRIIB [2] was determined as 0.000683 s⁻¹; with monomeric hActRIIB [4], 0.00237 s⁻¹. The kon in the assay with dimeric hActRIIB [2] amounted to 104000 M⁻¹ s⁻¹; with monomeric hActRIIB [4], 148000 M⁻¹ s⁻¹. The Kd was 6.57 nM in the assay with dimeric hActRIIB [3] and 16 nM with monomeric hActRIIB [5].

B2: L01 (antibody, human IgG1, kappa, V domains shown)
VH: QLQLQESGPGLVKPSETLSLTCTVSGGSISSSSYYWGWIRQPPGKGLEWIGSISYSGSTYYNPSLKSRVTISVDTSKNQFSLKLSSVTAADTAVYYCARDSLRYGMDVWGQGTTVTVSS
VL: EIVMTQSPATLSVSPGERATLSCRASQSVSSNLAWYQQKPGQAPRLLIYGASTRATGIPARFSGSGSGTEFTLTISSLQSEDFAVYYCQVYNVWPRTFGGGTKVEIKR
notes: Naive human IgG; also called L01 antibody; mAB L01
As for B2, in the assay with dimeric hActRIIA [1], the binding result is reported as “no binding”. The koff turned out to be 0.000365 s⁻¹ with dimeric hActRIIB [2] and 0.0179 s⁻¹ in the assay with monomeric hActRIIB [4]. Moreover, the results for the kon with dimeric hActRIIB [2] and with monomeric hActRIIB [4] were 212000 M⁻¹ s⁻¹ and 921000 M⁻¹ s⁻¹, respectively. In addition, the results for the Kd in the assay with dimeric hActRIIB [3] and in the assay with monomeric hActRIIB [5] were 1.72 nM and 19.5 nM, respectively.

B3: N01 (antibody, human IgG1, kappa, V domains shown)
VH: QLQLQESGPGLVKPSETLSLTCTVSGGSISSSSYYWGWIRQPPGKGLEWIGSISYSGSTYYNPSLKSRVTISVDTSKNQFSLKLSSVTAADTAVYYCARDSLRYGMDVWGQGTTVTVSS
VL: DIQMTQSPSTLSASVGDRVTITCRASQSIGSWLAWYQQKPGKAPKLLIYKASSLESGVPSRFSGSGSGTEFTLTISSLQPDDFATYYCQVYGSYSPRTFGGGTKVEIKR
notes: also called N01 antibody; mAB N01
On to B3, for which the binding result with dimeric hActRIIA [1] is listed as “no binding”. Moreover, the koff in the assay with dimeric hActRIIB [2] amounted to 0.000335 s⁻¹; with monomeric hActRIIB [4], 0.00769 s⁻¹. Also, the kon came to 182000 M⁻¹ s⁻¹ with dimeric hActRIIB [2] and 416000 M⁻¹ s⁻¹ with monomeric hActRIIB [4]. In addition, the Kd came out at 1.84 nM with dimeric hActRIIB [3] and 18.5 nM with monomeric hActRIIB [5].

B4: M01 (antibody, V domains shown)
VH: EVQLLESGGGLVQPGGSLRLSCAASGFTFGSYGMTWVRQAPGKGLEWVSVISGSGGGTYYADSVKGRFTISRDNSKNTLYLQMNSLRAEDTAVYYCAKGPRVVGMDVWGQGTTVTVSS
VL: DIQMTQSPSSVSASVGDRVTITCRASQGISSWLAWYQQKPGKAPKLLIYAASSLQSGVPSRFSGSGSGTDYTLTISSLQPEDFATYYCQQVFSYPLTFGGGTKVEIK
notes: Optimized human IgG; It was captured through its Fc on an anti-hFc IgG chip; also called M01 antibody; mAB M01
With B4, in the assay with dimeric hActRIIA [1], the binding result is “no binding”. The figures for the koff in the assay with dimeric hActRIIB [2] and in the assay with monomeric hActRIIB [4] were 3.24e-05 s⁻¹ and 8.72e-05 s⁻¹, respectively. The results for the kon in the assay with dimeric hActRIIB [2] and with monomeric hActRIIB [4] were 304000 M⁻¹ s⁻¹ and 1.16e+06 M⁻¹ s⁻¹, respectively. The values for the Kd with dimeric hActRIIB [3] and with monomeric hActRIIB [5] were 0.107 nM and 0.0755 nM, respectively.

B5: P01 (antibody, V domains shown)
VH: EVQLLESGGGLVQPGGSLRLSCAASGFTFSSYAMSWVRQAPGKGLEWVSAISGSGGSTSYADSVKGRFTISRDNSKNTLYLQMNSLRAEDTAVYYCARLPQYSRPFDYWGQGTLVTVSS
VL: DIQMTQSPSSVSASVGDRVTITCRASQGISSWLAWYQQKPGKAPKLLIYAASSLQSGVPSRFSGSGSGTDFTLTISSLQPEDFATYYCQQGHSFPLTFGGGTKVEIK
notes: Naive human IgG; also called P01 antibody; mAB P01
As for B5, in the assay with dimeric hActRIIA [1], the binding result is “no binding”. For the same molecule, in the assay with dimeric hActRIIB [2], the koff is 0.0145 s⁻¹ and the kon is 388000 M⁻¹ s⁻¹. Also, binding with dimeric hActRIIB [3] was put at a Kd of 37.4 nM.

B6: J01 (antibody, V domains shown)
VH: QVQLVQSGAEVKKPGASVKVSCKASGYTFTSYRMHWVRQAPGQGLEWMGFIVPSGGSTSYAQKFQGRVTMTRDTSTSTVYMELSSLRSEDTAVYYCARVSRYAPEPMDVWGQGTTVTVSS
VL: DIQMTQSPSSVSASVGDRVTITCRASQGISRWLAWYQQKPGKAPKLLIYAASSLQSGVPSRFSGSGSGTDFTLTISSLQPEDFATYYCQQAFSHPWTFGGGTKVEIK
notes: also called J01 antibody; mAB J01
Consider B6, for which the koff with dimeric hActRIIA [6] was found to be 9.31e-05 s⁻¹; with dimeric hActRIIB [2] it was 1.69e-05 s⁻¹; in the assay with monomeric hActRIIA [8] it was 0.00259 s⁻¹; with monomeric hActRIIB [4], 0.00022 s⁻¹. Moreover, the kon in the assay with dimeric hActRIIA [6] came out at 484000 M⁻¹ s⁻¹; in the assay with dimeric hActRIIB [2] it was 452000 M⁻¹ s⁻¹; with monomeric hActRIIA [8], 828000 M⁻¹ s⁻¹; with monomeric hActRIIB [4] it was 1.05e+06 M⁻¹ s⁻¹. In addition, the Kd is 0.192 nM in the assay with dimeric hActRIIA [7], 0.0374 nM with dimeric hActRIIB [3], 3.13 nM in the assay with monomeric hActRIIA [9] and 0.209 nM with monomeric hActRIIB [5].
